One may read the Kd as the equilibrium constant for the complex coming apart. Read a low Kd as higher affinity.

Experiment [1] addresses T1, hVISTA-Fc (produced in house) (human, UniProt Q9H7M9 33-194, limits assumed).
T1 construct: Analyte in the SPR of the nanobodies; not shown: Fc
T1 sequence (looked up): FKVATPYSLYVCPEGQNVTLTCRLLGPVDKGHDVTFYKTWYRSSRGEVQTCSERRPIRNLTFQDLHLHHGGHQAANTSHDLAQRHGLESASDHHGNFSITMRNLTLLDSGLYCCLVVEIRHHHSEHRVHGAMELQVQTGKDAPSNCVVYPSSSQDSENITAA
Description: SPR (BIAcore T200), single-cycle kinetics, Nb captured on anti-His chip, hVISTA-Fc injected at 1.9, 3.8, 7.5, 15, 30 nM, 1:1 fit. As for the experimental part:
Binding kinetics of mAbs and Nbs to hVISTA and mVISTA were obtained by surface plasmon resonance (SPR) using a BIAcore T200 (Cytiva) and HBS running buffer (20 mM of HEPES pH 7.4, 150 mM NaCl, 0.005% Tween-20, 3.4 mM EDTA). Briefly, anti-histidine antibodies were immobilized on a CM5 chip (29149604; Cytiva) using the His capture kit (28995056; Cytiva) following manufacture's protocol. For mAbs, VISTA was captured by flowing […] of hVISTA-COMP-his or mVISTA-COMP-his at a flow rate of 30 μL/min. Sensorgrams were collected using single-cycle kinetics covering five mAb concentrations (1:2 serial dilutions). For Nbs, solutions of each nanobody ([…]) were flown over an anti-histidine-coated chip. Five concentrations (1:2 serial dilutions) of hVISTA-Fc (produced in house) were then injected at a flow rate of 30 μL/min. KD, Kₒₙ, and Koff were calculated by analyzing the sensorgrams with a 1:1 Langmuir binding model²³ after subtracting reference sensorgrams.
A general note: Surface plasmon resonance follows binding to a sensor surface in real time, without labels.

The target in experiment [2] is T2, human VISTA on primary human immune cells (CD14+CD16- classical monocytes of PBMCs) (human, UniProt Q9H7M9 33-311).
T2 construct: whole, on cells; Native protein on donor cells; also called hVISTA
T2 sequence (looked up): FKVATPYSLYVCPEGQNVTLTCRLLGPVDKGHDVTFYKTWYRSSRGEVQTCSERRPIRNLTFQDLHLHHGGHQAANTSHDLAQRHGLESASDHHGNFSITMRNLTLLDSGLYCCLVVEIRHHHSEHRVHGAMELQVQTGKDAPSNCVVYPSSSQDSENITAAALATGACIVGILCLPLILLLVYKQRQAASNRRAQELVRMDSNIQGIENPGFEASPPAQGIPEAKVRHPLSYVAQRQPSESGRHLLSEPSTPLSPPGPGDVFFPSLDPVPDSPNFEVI
Description: flow cytometry on human PBMC, gate CD14+CD16- monocytes, ΔMFI against control, 5 donors. As to the method: PBMCs had their Fc receptors blocked with Human TruStain FcX (422301; BioLegend) then incubated with 2.5 μg of mAb, mouse IgG1 (401408; BioLegend), or rat IgG2a (400565; BioLegend) or 15 μg Nb for 1 hour at 4° C. After washing with PBS, the PBMCs were incubated with secondary antibodies (1 μL; FITC anti-mouse IgG1, FITC anti-HA, or FITC anti-rat IgG2a; 406605, 901507, or MRG2a-83; BioLegend) or control FITC anti-VISTA antibodies (clone B7H5DS8; 11-1088-42; eBioscience) for 40 minutes at 4° C. A staining cocktail consisting of PE/Cy5 anti-CD11b (101210; BioLegend), APC/Cy7 anti-CD14 (325620; BioLegend), Alexa Flour 700 anti-CD16 (302026; BioLegend), PE/Cy7 anti-CD4 (317414; BioLegend), and Alexa Flour 647 anti-CD8 (301022; BioLegend) was then added to the PBMCs and incubated for 20 minutes at 4° C. Finally, the PBMCs were washed and resuspended in 3 μM DAPI (D1306; Thermo Fisher Scientific) and cytometric profiles recorded using a BD LSR II flow cytometer (BD) maintained by The Centre for Flow Cytometry & Scanning Microscopy (CCSM) at Sunnybrook Research Institute (SRI; Sunnybrook Health Sciences Centre, Toronto, ON, Canada). The same protocol was performed on murine splenocytes to measure the binding of rat anti-hmVISTA mAbs to murine immune cells.
(In general: A flow cytometer gives signals particle by particle.)

Experiment [3] deals with T3, murine VISTA (mVISTA), recombinant; form not stated (mouse, UniProt Q9D659 33-191, limits assumed).
T3 construct: The SPR method names only hVISTA-Fc as analyte for the nanobodies; also called mouse VISTA
T3 sequence (looked up): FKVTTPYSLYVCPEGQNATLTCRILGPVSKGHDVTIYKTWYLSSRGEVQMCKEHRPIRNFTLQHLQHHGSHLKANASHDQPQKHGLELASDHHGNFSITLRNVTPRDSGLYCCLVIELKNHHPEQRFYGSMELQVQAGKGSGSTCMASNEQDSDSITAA
Description: SPR single-cycle kinetics (FIG. 8).

B1: anti-hVISTA nanobody hVISTANb7 (VHH)
VHH: QVQLQESGGGLVYPGGSLRLSCTASGFAFTNAYMNWVRQAPGKGAEWVSGITRDSNRTSYADSVKGRFTISRDNAKNTLYLQMDSLKSDDTALYYCNAEPSGWWLDDDYWGQGTQVTVSS
notes: Llama nanobody made in E. coli WK6; not shown: HA tag and His tag (pMECS vector; purified on a His-Trap column, detected with anti-HA)
B1: in experiment [1], binding was put at a Kd of 7.5 nM. In addition, the results for the binding result in experiment [2] and in experiment [3] were “binds” and “no binding”, respectively.
